The values that follow come from publication doi:10.1101/585943 (bioRxiv, 2019).

The data set concerns the molecule itself. Put plainly: cryo-EM structure.

B1: SgrAI, type II restriction endonuclease, his-tagged wild type (enzyme, Streptomyces griseus)
chain: PFTYSIEATRNLATTERCIQDIRNAPVRNRSTQFQLAQQNMLAYTFGEVIPGFASAGINGMNYRDVIGRPVENAVTEGTHFFRDDFRVDSNAKAKVAGDIFEIVSSAVMWNCAARWNSLMVGEGWRSQPRYSRPTLSPSPRRQVAVLNLPRSFDWVSLLVPESQEVIEEFRAGLRKDGLGLPTSTPDLAVVVLPEEFQNDEMWREEIAGLTRPNQILLSGAYQRLQGRVQPGEISLAVAFKRSLRSDRLYQPLYEANVMQLLLEGKLGAPKVEFEVHTLAPEGTNAFVTYEAASLYGLAEGRSAVHRAIRELYVPPTAADLARRFFAFLNERMELVNG
As to B1, the binding result is recorded as “binds”.
